Experimental data taken from paper PMC6540952.

Tested on: Nc1ncnc2c1ncn2[C@@H]1O[C@H](COP(=O)(O)OP(=O)(O)OP(=O)(O)O)[C@@H](O)[C@H]1O
Assay: purified protein
Assay type: biochemical, Homo sapiens

IP6K1 (Homo sapiens) was tested, and the Km was 353 ± 167 µM.
